In patent US9869668B2, “PDGF as a biomarker for predicting resistance or effect of c-Met targeting drugs” (SAMSUNG ELECTRONICS CO., LTD., priority 2014, dated 2018):

Columns and labels:
Format in all cases: cell-based
[1] = test system: EBC1-SR#6 cell line (compared with EBC1 parental cell line); assay: EZ-Cytox cell viability assay, 72 hours after treatment; details: EBC1-SR#6 vs EBC1 parental cell line, sole treatment, FIG. 2/FIG. 3
Experimental: To examine whether the quantitative increase of PDGF protein contributes to obtaining resistance in anti-c-Met antibody resistance acquired cell line, EBC1 and EBC1-SR#6 cell lines were treated with PDGFR (PDGF Receptor) TKI (tyrosine kinase inhibitor), then the changes of cell growth inhibition were measured using EZ-Cytox Cell viability assay kit (DaeiLab Service, Seoul, Korea).
For this, each of EBC1 cells and EBC1-SR#6 cells were seeded on 96-well plate at the amount of 5000 (5×10^3) cells. […] Seventy two hours after the treatment, the number of the cells was measured by EZ-Cytox Cell viability assay kit.

EBC1 parent cells = assay: Responsiveness of parent cells to SAIT301 before inducing resistance
Experimental: To examine the quantitative change of PDGF when a resistance to an anti-c-Met antibody is induced, SAIT301 resistance acquired EBC1-SR#6 cell lines were prepared by repeatedly treating EBC1 (JCRB 0820) cells with SAIT301. EBC1 parent cells were all responsive to SAIT301, before inducing SAIT301 resistance. The SAIT301 resistance acquired EBC1-SR#6 cell lines were prepared as follows: […]

EBC1-SR#6 cell lines = assay: CellTiter Glo assay confirming acquired resistance to SAIT301; details: resistance-acquired clones; 0-2 ug/ml; 72 hours after the antibody treatment
Experimental: EBC1 (JCRB 0820) cell lines was treated with SAIT301 for at least 2 months, with increasing the concentration of treated antibody. The concentration of SAIT301 was increased from 1 ug/ml to 10 ug/ml until a resistance is induced. To confirm the acquisition of a resistance to SAIT301, the prepared clones were treated with SAIT301 at the concentration of 0 ug/ml, 0.016 ug/ml, 0.08 ug/ml, 0.4 ug/ml, or 2 ug/ml, and 72 hours after the antibody treatment, the number of the living cells was counted by CellTiter Glo assay (Promega, G7573).
The obtained SAIT301 resistance acquired cell lines were named EBC1-SR#6.

Molecule | chemosensitivity of EBC1-SR#6 cell line compared with EBC1 [1] | responsiveness of cells to antibody (EBC1 parent cells) | effect of antibody on number of living cells (EBC1-SR#6 cell lines)
CCN(CC)CCCCNc1ncc2cc(-c3cc(OC)cc(OC)c3)c(NC(=O)NC(C)(C)C)nc2n1 [PD173074] | not changed markedly |  | 
SAIT301: anti-c-Met antibody: huAbF46-H4-A1 heavy chain variable region, human IgG2 hinge and constant region, kappa light chain (antibody) heavy: EVQLVESGGGLVQPGGSLRLSCAASGFTFTDYYMSWVRQAPGKGLEWLGFIRNKANGYTTEYSASVKGRFTISRDNSKNTLYLQMNSLRAEDTAVYYCARDNWFAYWGQGTLVTVSSASTKGPSVFPLAPCSRSTSESTAALGCLVKDYFPEPVTVSWNSGALTSGVHTFPAVLQSSGLYSLSSVVTVPSSNFGTQTYTCNVDHKPSNTKVDKTVERKCCVECPPCPAPPVAGPSVFLFPPKPKDTLMISRTPEVTCVVVDVSHEDPEVQFNWYVDGVEVHNAKTKPREEQFNSTFRVVSVLTVVHQDWLNGKEYKCKVSNKGLPAPIEKTISKTKGQPREPQVYTLPPSREEMTKNQVSLTCLVKGFYPSDIAVEWESNGQPENNYKTTPPMLDSDGSFFLYSKLTVDKSRWQQGNVFSCSVMHEALHNHYTQKSLSLSPGK light: DIQMTQSPSSLSASVGDRVTITCKSSQSLLASGNQNNYLAWYQQKPGKAPKMLIIWASTRVSGVPSRFSGSGSGTDFTLTISSLQPEDFATYYCQQSYSRPYTFGQGTKVEIKRTVAAPSVFIFPPSDEQLKSGTASVVCLLNNFYPREAKVQWKVDNALQSGNSQESVTEQDSKDSTYSLSSTLTLSKADYEKHKVYACEVTHQGLSSPVTKSFNRGEC |  | responsive | no effect
